Measured values as given in publication PMC10144504 (Cell, 2023).
Values belong to the molecule of their own block, whether it stands above or below them.

Tests used:
[1] = molecular target: mC-GCGR-31C-NBD (minimal cysteine GCGR labelled with NBD on the N-terminal helix of the ECD) (human) (UniProt P47871); test: other fluorescence titration
[2] = molecular target: mC-GCGR-345C-NBD (minimal cysteine GCGR labelled with NBD at the cytoplasmic end of TM6) (human) (UniProt P47871); test: other fluorescence titration
[3] = molecular target: Nanoluc-GCGR fusion protein (human) (UniProt P47871); test: FRET or BRET
[4] = molecular target: Human glucagon receptor (Q27-F477) (human, UniProt P47871 27-477); test: pull-down
Chain of Human glucagon receptor (Q27-F477) (P47871 27-477): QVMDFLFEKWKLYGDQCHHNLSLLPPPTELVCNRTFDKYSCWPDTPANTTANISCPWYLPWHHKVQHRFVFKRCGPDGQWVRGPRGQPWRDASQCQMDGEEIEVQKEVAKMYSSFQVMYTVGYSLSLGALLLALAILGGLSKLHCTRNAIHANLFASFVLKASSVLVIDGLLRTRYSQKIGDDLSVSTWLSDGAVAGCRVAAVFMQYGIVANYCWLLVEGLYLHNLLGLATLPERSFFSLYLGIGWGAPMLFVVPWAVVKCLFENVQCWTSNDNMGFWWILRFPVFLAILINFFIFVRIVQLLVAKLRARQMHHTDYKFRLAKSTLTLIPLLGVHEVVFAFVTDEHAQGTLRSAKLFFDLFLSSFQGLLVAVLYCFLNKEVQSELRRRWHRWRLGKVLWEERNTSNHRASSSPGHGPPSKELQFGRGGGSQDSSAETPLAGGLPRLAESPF

Chain of Nanoluc-GCGR fusion protein (human) (P47871 26-477): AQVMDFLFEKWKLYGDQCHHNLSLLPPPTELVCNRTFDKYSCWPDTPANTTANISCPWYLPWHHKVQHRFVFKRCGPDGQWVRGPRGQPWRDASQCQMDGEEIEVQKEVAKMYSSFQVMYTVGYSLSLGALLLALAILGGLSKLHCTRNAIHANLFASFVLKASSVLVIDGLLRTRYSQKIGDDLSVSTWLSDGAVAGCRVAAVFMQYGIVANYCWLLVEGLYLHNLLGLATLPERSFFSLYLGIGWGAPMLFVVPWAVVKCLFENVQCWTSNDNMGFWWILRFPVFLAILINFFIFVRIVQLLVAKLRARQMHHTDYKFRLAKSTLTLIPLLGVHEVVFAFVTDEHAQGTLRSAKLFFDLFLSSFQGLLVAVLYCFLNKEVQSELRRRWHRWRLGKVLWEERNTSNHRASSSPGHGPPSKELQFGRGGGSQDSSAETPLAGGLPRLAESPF

- EC50 [1]: 131 nM
- EC50 [2]: 225 nM
Molecule: human RAMP2 (residues 43-175) (from UniProt O60895 43-175) (natural protein)

- fold decrease in affinity with co-expressed RAMP2 against without RAMP2 [3]: 2.9 fold
Molecule: Dasi-E21S-A17K(TAMRA) (peptide)

- binding result [4]: binds
B1: human RAMP2 (residues 43-175) (natural protein, UniProt O60895 43-175, looked up)
chain: QPLPTTGTPGSEGGTVKNYETAVQFCWNHYKDQMDPIEKDWCDWAMISRPYSTLRDCLEHFAELFDLGFPNPLAERIIFETHQIHFANCSLVQPTFSDPPEDVLLAMIIAPICLIPFLITLVVWRSKDSEAQA
